{"source": "paper PMC8442874", "target": "Soc-SpyCatcher fusion protein (displayed on T4 phage: T4-SpyCatcher phage) (bacteriophage T4)", "assay": "co-sedimentation", "data": [{"substance": "S-ecto-6P-SpyTagged trimer (prefusion-stabilized hexa-Pro SARS-CoV-2 spike ectodomain with C-terminal SpyTag) (from UniProt P0DTC2 14-1208) (domain or fragment)", "values": [{"measurement": "copies per capsid (S-trimers per phage capsid)", "value": 100}]}]}
